Drawing on PMC3305072, this text covers % dimeric species (SEC), % high molecular weight oligomeric species (SEC) and stoichiometry N for six substances.

Where only a bound is given, the exact number is not on record here.

The nature of data set [1]: SEC; Superdex 200 GL 10/300, PBS pH 7.5, protein injected at 50 µM, 0.5 mL/min, A280; percent of monomeric, dimeric and high molecular weight species. On the technique in general: SEC sorts molecules by how far they enter the pores of the column.
A short description of data set [2]: SEC; Superdex 200 GL 10/300, PBS pH 7.5, protein injected at 120 µM, 0.5 mL/min, A280; percent of monomeric, dimeric and high molecular weight species.
The nature of data set [3]: SEC; Superdex 200 GL 10/300, PBS pH 7.5, protein injected at 10 µM, 0.5 mL/min, A280; percent of monomeric, dimeric and high molecular weight species.
The target in data set [4] is BlaP(Gln)79 (Bacillus licheniformis 749/C). The data set can be described thus: SEC; Superdex 200 GL 10/300, PBS pH 7.5, protein injected at 120 µM, 0.5 mL/min, A280; percent of monomeric, dimeric and high molecular weight species.

Consider BlaP(Gln)23, for which the % dimeric species (SEC) came out at 0.6% in data set [1] and 0.7% in data set [2].
For BlaP(Gln)30, the % dimeric species (SEC) was 0.4% in data set [1] and 0.5% in data set [2].
For BlaP(Gln)55, the % dimeric species (SEC) in data set [1] was found to be 1.1%; in data set [2], 1.4%.
On to BlaP(Gln)79, for which the values for the % dimeric species (SEC) in data set [1], in data set [2] and in data set [3] were 1.1%, 1.2% and 0.9%, respectively. The % high molecular weight oligomeric species (SEC) amounted to 2.5% in data set [1], 3.5% in data set [2] and 1.8% in data set [3].
Broadly, the stoichiometry N is the number of molecules, sites or subunits per partner or assembly. On to BlaP(Gln)79 (enzyme), for which the stoichiometry N in data set [4] was more than 15.
On to “β-lactamase from Bacillus licheniformis 749/C (BlaP)”, for which the figures for the % dimeric species (SEC) in data set [1] and in data set [2] were 4.9% and 5.6%, respectively.
